According to the nanobody polyreactivity screen of Harvey et al. (2022):

Assay: yeast display, Sf9 membrane polyspecificity reagent, FACS + sequencing; frameworks hold sequencing errors
Summary of the method: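 Using colony PCR, genes from sorted yeast display clones were amplified, then sequenced on MiSeq at 2 × 250 and filtered by CDR length. The clones had been stained with 10% biotinylated, detergent-solubilized Sf9 membrane reagent for 1 hour at 4 °C and sorted by FACS into low and high (top ~1%) gates on anti-HA and streptavidin fluorescence. Polyreactivity labels come from the gate of origin.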

| Sequence | polyreactivity (PSR sort gate) |
| --- | --- |
| QVQLVESGGGLVQAGGSLRLSCAASGITFNTYAMGWYRQAPGKERELVAVITWSDGGTYYADSVKGRFTISRDNAKNTVYLQMNSLKPEDTAVYYCAKVLGGLRHGEVLDEYDYWGQGTQVTVSS | low polyreactivity |
| QVQLVESGGGLVQAGGSLRLSCAASGITFPRYTMGWYRPAPGKERELVAAISSGGSTYYADSVKGRFTISRDNAKNTVYLQMNSLKPEDTAVYYCNAVVPYWYYIYDYWGQGTQVTVSS | high polyreactivity |
| QVQLVESGGGLVQAGGSLRLSCAASGRIFRYNAMGWYRQAPGKERELVAAISSGGSTNYADSVKGRFTTSRDNAKNTVYLQMNSLKPEDTAVYYCNAESVHRYPGWGYDYWGQGTQVTVSS | low polyreactivity |
| QVQLVESGGGLVQAGGSLRLSCAASGFTFARYAMGWYIQAPGKERELVASISGSGESTYYADSVKGRFTISRDNAKNTVYLQMNSLKPEDTAVYYCAAEGSFLFFSWYWPEYDYWGQGTQVTVSS | high polyreactivity |
| QVQLVESGGGLFQAGGSLRLSCAASGRTFAIYDMGWYRQAPGKEREVVAAIDYSDGSTYYADSVKGRFTISRDNAKNTVYLQMNSLKPEDTAVYYCAADYDAIYLWWGYDYWGQGTQVTVSS | low polyreactivity |
| QVQLVESGGGLVQAGGSLRLSCAASGFTFGRYAMGGYRQAPGKERELVAAITSRGGSTYYADSVKGRFTISRDNAKNTVYLQMNSLKPEDTAVYYCAAATNTGPRGYEYWGQGTQVTVSS | high polyreactivity |
| QVQLVESGGGLLQAGGSLRLSCAASGFTFYPNAMGWYRQAPGKERELVAAISRSGSSTYYADSVKGRFTISRDNAKNTVYLQMNSLKPEDTAVYYCNRYGRQYDFYYWGQGTQVTVSS | high polyreactivity |
| QVHLVDSGGGLVQAGGSLRLSSAASGRIFGHYALGGYRQAPGKPRELVAAIRYSAGRTYYAGSVKGRFTISRDNAKNSVNLQMNSLKPEDTSVYYCAKTCRYLTGGGDYWGQGTQVTVSS | high polyreactivity |
| QVQLVESAGGLVQAGGSLRLSCADSGSTFSPYAMGWYIDAPGKERELVAAIRSGRTSYADSVKGRFTISRDNAKNTVYLQMNSLKPEDTAVYYCAKASRVGYYWGQGTQVTESS | high polyreactivity |
| QVQLLESGGGLDQAGGTLRLSWAASGIIFSFYTMGWYRQAPGKERELVAAITWSGGSTYYADSVKGRFTISRDNAKNTVYLQMNSLKPDDTAVYYCIARNPGRKRSQGYSWGQGTQVTVSS | low polyreactivity |
| QVQLVESGGGLVQAGGSLRLSCAACGRIFTPNAMGWYRPAPGKERELVAAITWSGDNTYADSVKGRFTISRDNAKNTVYLQMNSLKPEDTAVYYCAAAYGYGHKNYGYWRQGTQVTVSS | low polyreactivity |
| QVQLVESRGGLVQAGGSLRLSCAASGITFILYAMGCYRQAAWKERELVASITSGGSTDYADSVKERFTISGDNAKNTVYLQMNSLKPEDTAVYYCNAAARGSSFDYWGQGTQVTVSS | low polyreactivity |
| QVQLVESGGGLVQAGCSLRLSCAASGFILTYYLMGWYRQAPGKERELVAAILSGGNTYYADSVKGRFTISRDNAQNTVYLQMNCLKPEDTAVYYFNARPRWSYGLDYWGQGTQVTVSS | high polyreactivity |
| QVQLVESGGGLVQAGGSLRLSCAASGNTFPPNAMGWSRQAPGKERELVAAISWSGDSTYYADSVKGRFTISRDNAKNTVYLQMNSLKPEDTAVYYCAAAIFGEYEYWGQGTQVTVSS | low polyreactivity |
| QVQLVESGGGLVQAGGSLRLSCADSGRTFWGYSMGCYRQAPGKERELVAAITWNGGRTYYADSVKGRFTISRDNAKNTVYLQMNSLKPEDTAVYYCAAGYPRFGYDYWGQGTQVTVSS | high polyreactivity |
| QFQLVESGGGLVQAGGSLRLSCAASGSIIPIYAMGWYRQAPGKERELVAAINRSGGSTYYADSVKGRFTISRDNAKNTVYLQMNSLKPEDTAVYYCNADYGYHNQLFWGYYGWSSDHWGQGTQVTVSS | low polyreactivity |
| QVQLVESGGGLVQAGGSLRLSCAASGITSDQNAMGWYRQAPGKERELVAAITRGGTTYYADSVKGRFTISRDNAKNTVYLQMNSLKPEDTAVYYCNARYYFRKQVRPFHIRYDYWGQGTQVTVSS | low polyreactivity |
| QVQLVESGGGLVQAGGSLRLSWAASGRTFNRYVMGWYRQAPGKERELVAAISRSGTSTYYADSVKGRFTISRDNAKNTVYLQMNSLKPEDTAVYYCAREYQTVSFKNYYWGQGTQVTVSS | high polyreactivity |
| QVQLVESGGGLVQAGGSLRLSCAASGITFGSYAMGWYRQAPGKERELVAAITSGGGTNYADSVKGRFTISRDNPKNTVYLQMNSLKPEDTAVYYCAARYYYLGTRYGYWGQGTQVTVSS | low polyreactivity |
| QVQLVESGGGLVQAGGSLRLSCAASGSIFAEYAMGWYRQAPGKERELVAAINGGGSTYYADSVKGRFTISRDNAKNTVYLEMNSLKPEDTAVYYCAAEKYTSWYSFWGYLYDYWGQGTQVTVSS | high polyreactivity |
| QVQLVESGGGLVQARGSLRLSCAASGRIFPVNTMGWYRQAPGKERELVAAITSGGGTYYADSVKGRFTISRDNAKNTVYFQMNSLKPEDTAVYYWTAPEGRKPYDSWGQGTQVTVSS | low polyreactivity |
